# The supplement of paper PMC11246515
# ± gives the standard deviation of the averaged measurements.
# Test: total protein half-life in vivo (active degradation + dilution); higher = more stable protein
# [1] = wild type E. coli NCM3722, growth: C-lim chemostat, doubling time 3 h
# [2] = wild type E. coli NCM3722, growth: C-lim chemostat, doubling time 6 h
# [3] = E. coli NCM3722 delta-clpP delta-lon delta-hslV, growth: N-lim chemostat, doubling time 6 h
# [4] = E. coli NCM3722 delta-hslV, growth: N-lim chemostat, doubling time 6 h
# [5] = E. coli NCM3722 delta-lon, growth: N-lim chemostat, doubling time 6 h
# [6] = E. coli NCM3722 delta-smpB, growth: N-lim chemostat, doubling time 6 h
# [7] = wild type E. coli NCM3722, growth: C-lim chemostat, doubling time 12 h
# [8] = wild type E. coli NCM3722, growth: N-lim chemostat, doubling time 6 h
# [9] = wild type E. coli NCM3722, growth: N-lim chemostat, doubling time 12 h
# [10] = wild type E. coli NCM3722, growth: P-lim chemostat, doubling time 6 h
# [11] = wild type E. coli NCM3722, growth: P-lim chemostat, doubling time 12 h
# [12] = E. coli NCM3722 delta-clpP, growth: N-lim chemostat, doubling time 6 h
Sequence,total protein half-life in vivo [1] [h],total protein half-life in vivo [2] [h],total protein half-life in vivo [3] [h],total protein half-life in vivo [4] [h],total protein half-life in vivo [5] [h],total protein half-life in vivo [6] [h],total protein half-life in vivo [7] [h],total protein half-life in vivo [8] [h],total protein half-life in vivo [9] [h],total protein half-life in vivo [10] [h],total protein half-life in vivo [11] [h],total protein half-life in vivo [12] [h]
MAAIAFIGLGQMGSPMASNLLQQGHQLRVFDVNAEAVRHLVDKGATPAANPAQAAKDAEFIITMLPNGDLVRNVLFGENGVCEGLSTDALVIDMSTIHPLQTDKLIADMQAKGFSMMDVPVGRTSANAITGTLLLLAGGTAEQVERATPILMAMGSELINAGGPGMGIRVKLINNYMSIALNALSAEAAVLCEALNLPFDVAVKVMSGTAAGKGHFTTSWPNKVLSGDLSPAFMIDLAHKDLGIALDVANQLHVPMPLGAASREVYSQARAAGRGRQDWSAILEQVRVSAGMTAKVKM [P0A9V8],> 4,4.77 ± 1.8,–,–,–,–,–,–,–,–,–,–
MAAKDRIQAIKQMVANDKKVTVSNLSGIFQVTEETIRRDLEKLEDEGFLTRTYGGAVLNTAMLTENIHFYKRASSFYEEKQLIARKALPFIDNKTTMAADSSSTVMELLKLLQDRSGLTLLTNSAEAIHVLAQSEIKVVSTGGELNKNTLSLQGRITKEIIRRYHVDIMVMSCKGLDINSGALDSNEAEAEIKKTMIRQATEVALLVDHSKFDRKAFVQLADFSHINYIITDKSPGAEWIAFCKDNNIQLVW,2.93 ± 0.12,5.96 ± 0.83,5.6 ± 0.062,5.31 ± 0.24,5.25 ± 1.1,5.12 ± 0.069,9.64 ± 0.74,5.5 ± 0.2,9.92 ± 1.1,5.45 ± 0.52,13 ± 2.9,–
MAAQGFLLIATFLLVLMVLARPLGSGLARLINDIPLPGTTGVERVLFRALGVSDREMNWKQYLCAILGLNMLGLAVLFFMLLGQHYLPLNPQQLPGLSWDLALNTAVSFVTNTNWQSYSGETTLSYFSQMAGLTVQNFLSAASGIAVIFALIRAFTRQSMSTLGNAWVDLLRITLWVLVPVALLIALFFIQQGALQNFLPYQAVNTVEGAQQLLPMGPVASQEAIKMLGTNGGGFFNANSSHPFENPTALTNFVQMLAIFLIPTALCFAFGEVMGDRRQGRMLLWAMSVIFVICVGVVMWAEVQGNPHLLALGTDSSINMEGKESRFGVLVSSLFAVVTTAASCGAVIAMHDSFTALGGMVPMWLMQIGEVVFGGVGSGLYGMMLFVLLAVFIAGLMIGRTPEYLGKKIDVREMKLTALAILVTPTLVLMGAALAMMTDAGRSAMLNPGPHGFSEVLYAVSSAANNNGSAFAGLSANSPFWNCLLAFCMFVGRFGVIIPVMAIAGSLVSKKSQAASSGTLPTHGPLFVGLLIGTVLLVGALTFIPALALGPVAEYLS,–,–,–,–,–,–,–,–,–,5.85,–,–
MAASTFFIPSVNVIGADSLTDAMNMMADYGFTRTLIVTDNMLTKLGMAGDVQKALEERNIFSVIYDGTQPNPTTENVAAGLKLLKENNCDSVISLGGGSPHDCAKGIALVAANGGDIRDYEGVDRSAKPQLPMIAINTTAGTASEMTRFCIITDEARHIKMAIVDKHVTPLLSVNDSSLMIGMPKSLTAATGMDALTHAIEAYVSIAATPITDACALKAVTMIAENLPLAVEDGSNAKAREAMAYAQFLAGMAFNNASLGYVHAMAHQLGGFYNLPHGVCNAVLLPHVQVFNSKVAAARLRDCAAAMGVNVTGKNDAEGAEACINAIRELAKKVDIPAGLRDLNVKEEDFAVLATNALKDACGFTNPIQATHEEIVAIYRAAM,–,–,–,–,–,–,–,–,–,4.98,9.25 ± 2.1,–
MADEIDAMALYRAWQQLDNGSCAQIRRVSEPDELRDIPAFYRLVQPFGWENPRHQQALLRMVFCLSAGKNVIRHQDKKSEQTTGISLGRALANSGRINERRIFQLIRADRTADMVQLRRLLTHAEPVLDWPLMARMLTWWGKRERQQLLEDFVLTTNKNA,–,–,5.62 ± 1.1,–,–,–,–,–,–,–,–,–
MADNKPELQRGLEARHIELIALGGTIGVGLFMGAASTLKWAGPSVLLAYIIAGLFVFFIMRSMGEMLFLEPVTGSFAVYAHRYMSPFFGYLTAWSYWFMWMAVGISEITAIGVYVQFWFPEMAQWIPALIAVALVALANLAAVRLYGEIEFWFAMIKVTTIIVMIVIGLGVIFFGFGNGGQSIGFSNLTEHGGFFAGGWKGFLTALCIVVASYQGVELIGITAGEAKNPQVTLRSAVGKVLWRILIFYVGAIFVIVTIFPWNEIGSNGSPFVLTFAKIGITAAAGIINFVVLTAALSGCNSGMYSCGRMLYALAKNRQLPAAMAKVSRHGVPVAGVAVSIAILLIGSCLNYIIPNPQRVFVYVYSASVLPGMVPWFVILISQLRFRRAHKAAIASHPFRSILFPWANYVTMAFLICVLIGMYFNEDTRMSLFVGIIFMLAVTAIYKVFGLNRHGKAHKLEE,–,6.82 ± 0.17,6.95,6.01 ± 0.26,5.41 ± 0.71,5.99 ± 1.1,10.7,5.01,11.7,> 8,12.7 ± 2.9,–
MADTRPERRFTRIDRLPPYVFNITAELKMAARRRGEDIIDFSMGNPDGATPPHIVEKLCTVAQRPDTHGYSTSRGIPRLRRAISRWYQDRYDVEIDPESEAIVTIGSKEGLAHLMLATLDHGDTVLVPNPSYPIHIYGAVIAGAQVRSVPLVEGVDFFNELERAIRESYPKPKMMILGFPSNPTAQCVELEFFEKVVALAKRYDVLVVHDLAYADIVYDGWKAPSIMQVPGARDVAVEFFTLSKSYNMAGWRIGFMVGNKTLVSALARIKSYHDYGTFTPLQVAAIAALEGDQQCVRDIAEQYKRRRDVLVKGLHEAGWMVEMPKASMYVWAKIPEPYAAMGSLEFAKKLLNEAKVCVSPGIGFGDYGDTHVRFALIENRDRIRQAIRGIKAMFRADGLLPASSKHIHENAE,2.43 ± 0.15,3.92 ± 0.59,4.48 ± 0.37,2.21 ± 0.2,2.27 ± 0.23,2.22 ± 0.062,7.44 ± 1.7,2.28 ± 0.1,2.92 ± 0.049,4.75 ± 0.82,7.31 ± 0.3,4.17 ± 0.25
MAEAQNDPLLPGYSFNAHLVAGLTPIEANGYLDFFIDRPLGMKGYILNLTIRGQGVVKNQGREFVCRPGDILLFPPGEIHHYGRHPEAREWYHQWVYFRPRAYWHEWLNWPSIFANTGFFRPDEAHQPHFSDLFGQIINAGQGEGRYSELLAINLLEQLLLRRMEAINESLHPPMDNRVREACQYISDHLADSNFDIASVAQHVCLSPSRLSHLFRQQLGISVLSWREDQRISQAKLLLSTTRMPIATVGRNVGFDDQLYFSRVFKKCTGASPSEFRAGCEEKVNDVAVKLS [P0A9E0],0.747 ± 0.18,1.42 ± 0.059,5.38 ± 0.2,1.21 ± 0.4,1.26 ± 0.079,0.763 ± 0.18,1.81 ± 0.044,1.08 ± 0.057,1.34 ± 0.25,–,1.12,1.95
MAEETIFSKIIRREIPSDIVYQDDLVTAFRDISPQAPTHILIIPNILIPTVNDVSAEHEQALGRMITVAAKIAEQEGIAEDGYRLIMNTNRHGGQEVYHIHMHLLGGRPLGPMLAHKGL [P0ACE7],3.32 ± 0.21,5.24 ± 0.32,–,4.88 ± 0.38,–,4.71 ± 0.36,8.75 ± 1.9,4.31 ± 0.051,7.64 ± 0.66,5.65 ± 0.32,12 ± 1.3,5.01 ± 0.59
MAEFETTFADLGLKAPILEALNDLGYEKPSPIQAECIPHLLNGRDVLGMAQTGSGKTAAFSLPLLQNLDPELKAPQILVLAPTRELAVQVAEAMTDFSKHMRGVNVVALYGGQRYDVQLRALRQGPQIVVGTPGRLLDHLKRGTLDLSKLSGLVLDEADEMLRMGFIEDVETIMAQIPEGHQTALFSATMPEAIRRITRRFMKEPQEVRIQSSVTTRPDISQSYWTVWGMRKNEALVRFLEAEDFDAAIIFVRTKNATLEVAEALERNGYNSAALNGDMNQALREQTLERLKDGRLDILIATDVAARGLDVERISLVVNYDIPMDSESYVHRIGRTGRAGRAGRALLFVENRERRLLRNIERTMKLTIPEVELPNAELLGKRRLEKFAAKVQQQLESSDLDQYRALLSKIQPTAEGEELDLETLAAALLKMAQGERTLIVPPDAPMRPKREFRDRDDRGPRDRNDRGPRGDREDRPRRERRDVGDMQLYRIEVGRDDGVEVRHIVGAIANEGDISSRYIGNIKLFASHSTIELPKGMPGEVLQHFTRTRILNKPMNMQLLGDAQPHTGGERRGGGRGFGGERREGGRNFSGERREGGRGDGRRFSGERREGRAPRRDDSTGRRRFGGDA [P0A9P6],1.4 ± 0.34,1.34 ± 0.29,5.66 ± 0.077,0.567 ± 0.1,4.78 ± 0.32,0.849 ± 0.089,1.19 ± 0.17,2.26 ± 2,0.902 ± 0.095,0.635 ± 0.37,0.864 ± 0.3,0.972 ± 0.029
MAEIGIFVGTMYGNSLLVAEEAEAILTAQGHKATVFEDPELSDWLPYQDKYVLVVTSTTGQGDLPDSIVPLFQGIKDSLGFQPNLRYGVIALGDSSYVNFCNGGKQFDALLQEQSAQRVGEMLLIDASENPEPETESNPWVEQWGTLLS,3.57 ± 0.5,5.8 ± 0.3,6.12 ± 0.9,5.34 ± 0.23,6 ± 0.2,5.34 ± 0.1,13.42 ± 0.023,5.7 ± 0.42,9.75 ± 0.96,6.03 ± 0.35,–,6.03 ± 1.5
MAELSDQEMLRYNRQIILRGFDFDGQEALKDSRVLIVGLGGLGCAASQYLASAGVGNLTLLDFDTVSLSNLQRQTLHSDATVGQPKVESARDALTRINPHIAITPVNALLDDAELAALIAEHDLVLDCTDNVAVRNQLNAGCFAAKVPLVSGAAIRMEGQITVFTYQDGEPCYRCLSRLFGENALTCVEAGVMAPLIGVIGSLQAMEAIKMLAGYGKPASGKIVMYDAMTCQFREMKLMRNPGCEVCGQ,3.03 ± 0.46,6.09 ± 0.5,5.3 ± 1.4,4.1 ± 0.1,6.67 ± 1.7,4.36 ± 0.4,11.3 ± 0.97,4.66 ± 0.53,9.95,5.7448 ± 0.0056,13.2 ± 1.6,4.37 ± 0.4
